Measured values reported in PMC10275983.
Values joined by “and” are separate entries in the source; they are usually repeats but may differ in a detail not shown here. Equal entries are not always repeated.

Biological target: S1 (Novus Biologicals NBP2-90985) (SARS-CoV-2), P0DTC2
Assay: AlphaScreen or HTRF

ACEYVGPMCYRLYCA (modifications not checked) [BCY15354 (E1)]
IC50: 360 nM and 1600 nM and 550 nM

ACMNPFFYDCETVCA (modifications not checked) [BCY16207 (E9)]
IC50: 1100 nM

ACEDNDWVYCSTCA (modifications not checked) [BCY15231 (E3)]
IC50: 310 nM and 400 nM
